Where “and” joins values, the source holds several entries; their conditions need not be identical. Identical values can stand only once. Like-named read-outs stand apart in the source and are kept apart here.
Assays:
[1] = measured in Q previously; cited from earlier work
[2] = Q, previous results; cited from earlier work
[3] = previous studies, cited from earlier work
[4] = Q as previously described; cited from earlier work
[5] = 10 Hz, Q as reported previously; cited from earlier work
[6] = Passive microrheology (multiple particle tracking); assay type: physicochemical; details: 4 °C
Procedure: Microrheology. Protein was concentrated to 2 mM, as measured by BCA assay, and immediately aliquoted 27.7 μL into a 200 μL PCR tube. 1% v/v (or 0.3 μL) of […] red polystyrene fluorometric beads (FluoSpheres) were then added to the sample. A glass capillary tube was then loaded with sample by capillary action and sealed to prevent evaporation while being affixed to a microscopy slide using two-component fast-curing epoxy (JB Weld). Samples were then imaged at 0 h as a starting measurement and then every 12 h using a Leica DMI4000b inverted microscope equipped with a Leica DFC310 FX 1.4 megapixel camera at 40× magnification with 2×2 binning. […] Each image series was recorded for a total of 300 frames with a lag time (i) of 0.037 s between each frame. Relaxation exponents i.e. the logarithmic slopes of particle mean-squared displacements (MSDs) with respect to lag time as determined by multiple particle tracking (MPT) analysis were used to determine when equilibration of the hydrogel was complete and measurements were no longer recorded (60 h in this case). […]
Gelation kinetics of the hydrogels were assessed using passive microrheology (FIG. 61a-e). Time to gelation was measured immediately after concentration to 2 mM at 4° C. by incubating with 1 μm fluorescent tracer beads added to the protein in solution state at a final concentration of 1% (v/v). […]

Cryo-EM of Q5 gel = assay type: physicochemical
Procedure: Cryo-Electron Microscopy. Lacey Carbon 300 mesh copper grids (Ted Pella) were used for cryo-EM imaging on FEI TALOS F200C with Ceta 16M camera at 200 kV accelerating voltage. PELCO easiGlow™ Glow Discharge Cleaning System was also used for the plasma treatment of the grids.
Cryo-EM. Cryo-EM samples were prepared with the Vitrobot system (Thermo Fisher Scientific) which can help vitrify a thin solution layer at low temperature. Approximately 4 μl of sample solution was applied to the grids in the chamber of Vitrobot at 4° C. and 100% humidity. The sample solution was incubated for 10 s and then the grid was blotted three times. Blotting lasted 1 s for each time. […] Then, the grid was transferred into liquid nitrogen. The cryo-EM holder was kept at −175° C. to prevent solvent crystallization during the imaging. Coarse-grained Model Details. Each bond is defined by Equation 10: […]

[7] = Small angle X-ray scattering of Q5; assay type: physicochemical
Procedure: Small Angle X-ray Scattering (SAXS). SAXS was employed to measure interparticle interactions, structure, and shape of Q5 since it was capable of gelation in the instrument holder within 24 h. SAXS experiments were performed at the National Synchrotron Light Source-II (NSLS-II) Beamline 16-ID (LiX) at Brookhaven National Laboratory.
Small Angle X-ray Scattering (SAXS). All measurements were taken within 12 h of concentration of the protein from the dialysis bag. To study Q5 as an isolated particle, 150 μM (˜1 mg/mL) protein and dialysis buffer (50 mM Tris 500 mM NaCl pH 8.0) was loaded into a flow cell and measured in the q range […] to 3.19 Å^−1. The Q5 protein transition from solution to hydrogel was measured by incubation at 4° C. of 3 mM of Q5 protein in an eight-slot holder capable of loading 30 μL of each sample. Between measurements, the holder was returned for incubation at 4° C. Independent slots were used to load six samples of the Q5 hydrogel in solution including one for the empty cell and one for the dialysis buffer. Each slot was measured once incrementally over a 24 h incubation window to negate the impact of radiation (except for the measurement made at 24 h which was measured from the previous time point sample due to sample error in the last slot holder, however, a negligible impact of radiation was observed). Similarly, Q5 hydrogel measurements made at 3 mM and 4° C. were measured in the q range 0.005 Å^−1 to 3.19 Å^−1. Kratky plots were calculated by Guinier analysis of Rg and I(0) values. Flory exponents were calculated using MFF fit by Sosnick group online tool. Pair distance distribution function, P(r), was calculated using primus (ATSAS software).

[8] = tested on: type 2 mouse diabetic wound; test: Diabetic mouse wound model; assay type: in vivo; details: vs exosomes alone and untreated mice

In the case of “Q: rationally designed pentameric coiled-coil derived from C, SEQ ID NO: 23 (MRGSHHHHHHGSIEGRVKEITFLKNTAPQMLRELQETNAALQDVRELLRQQSKL) [reference compound]”, the protofibril diameter [1] is listed as 3.5±0.5 nm, the “α-helical secondary structure upon gelation” value [2] is listed as 52% and the melting temperature ([3]; 50 mM Na2HPO4 pH 4.0) is listed as 55.3 °C. The melting temperature ([3]; 50 mM Na2HPO4 pH 10.0) was 46.4 °C, the UCST [4] was ~16 °C and 16.2 °C and the “storage modulus G′” value [5] was 50.4 Pa and 50 Pa.

For “Q5: Q hydrogel variant from Rosetta Monte Carlo search, SEQ ID NO: 14 (MRGSHHHHHHGSIEGRVKEITFIKKTIEQIAEEMKEINKAIHDIRHALENISKK) [Protein Q5]”, the “time to complete gelation (sol-gel transition)” value [6] was at most 24 h, the “fiber diameter (cryo-EM)” value (Cryo-EM of Q5 gel; 0.5 mM, n=100) was 3.4±0.7 nm and the “fiber diameter (cryo-EM)” value (Cryo-EM of Q5 gel; 1 mM, n=100) was 5.6±2.1 nm. The “fiber spacing by FFT” value (Cryo-EM of Q5 gel; 2 mM) was 14-17 nm, the “crosslinked fiber diameter (cryo-EM)” value (Cryo-EM of Q5 gel; 2 mM, n=100) was 5.8±1.5 nm and the “P(r) distribution centre” value ([7]; 150 μM, 0 h at 4 °C) was 22.5 Å. The “average step-size increase of P(r) peaks” value ([7]; 3 mM, 24 h at 4 °C) was 39.1±4.2 Å, the cylinder length ([7]; assuming cylindrical shape) was 6.8±0.4 nm and the diabetic wound closure [8] was “faster time to closure”.
